Results reported in paper PMC8415317 (Genes & Development, 2021).
Where no end group is shown, it is not given here.

Experiments:
ERH-2 [1] = type: binding, C. elegans
ERH-1 [2] = target: T1, ERH-1 (Caenorhabditis elegans, UniProt Q22640); experiment: Isothermal titration calorimetry, binding to ERH-1; set-up: species or system C. elegans
T1 sequence (Q22640 1-103): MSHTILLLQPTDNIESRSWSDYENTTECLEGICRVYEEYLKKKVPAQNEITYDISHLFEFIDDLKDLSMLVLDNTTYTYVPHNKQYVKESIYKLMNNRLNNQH

ERH-2:PID-3^pep 1:2 = target: T2, ERH-2:PID-3^pep 1:2 (Caenorhabditis elegans, UniProt O76616+Q20057); experiment: Isothermal titration calorimetry, binding to ERH-2:PID-3^pep 1:2; set-up: species or system C. elegans
T2 sequence (Q20057 1-113): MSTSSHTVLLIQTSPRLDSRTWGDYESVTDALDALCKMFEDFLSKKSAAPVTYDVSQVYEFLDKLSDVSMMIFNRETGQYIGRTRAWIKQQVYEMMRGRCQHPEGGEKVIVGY
T2 sequence (O76616 171-203 partner limits assumed): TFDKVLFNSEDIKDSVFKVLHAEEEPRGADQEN

ERH-2 [3] = target: T3, ERH-2 (Caenorhabditis elegans, UniProt Q20057); experiment: NMR-monitored titration of 15N-labeled ERH-2; type: binding, C. elegans; settings: 1H-15N HSQC titration, 25°C, NMR buffer pH 7.50, ERH-2 ~200 μM
T3 sequence (Q20057 1-113): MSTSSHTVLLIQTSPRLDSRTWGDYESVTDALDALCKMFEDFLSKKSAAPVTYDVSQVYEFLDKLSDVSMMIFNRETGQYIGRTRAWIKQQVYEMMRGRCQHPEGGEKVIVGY

ERH-2 [4] = target: T3, ERH-2; experiment: Isothermal titration calorimetry, binding to ERH-2; set-up: species or system C. elegans
ERH-2 [5] = experiment: Streptavidin pull-down, TOST-1/PID-1 mVenus-Strep bait with ERH-2; type: binding, C. elegans; settings: TOST-1 or PID-1 mVenus-Strep bait 10-20 μM, prey 1.2-fold molar excess, 4°C
ERH-1 [6] = target: T1, ERH-1; experiment: Streptavidin pull-down, TOST-1/PID-1 mVenus-Strep bait with ERH-1; type: binding, C. elegans; settings: TOST-1 or PID-1 mVenus-Strep bait 10-20 μM, prey 1.2-fold molar excess, 4°C
TOFU-6^RRM = target: T4, TOFU-6^RRM (C. elegans, UniProt Q09293 1-99); experiment: SEC
T4 sequence (looked up): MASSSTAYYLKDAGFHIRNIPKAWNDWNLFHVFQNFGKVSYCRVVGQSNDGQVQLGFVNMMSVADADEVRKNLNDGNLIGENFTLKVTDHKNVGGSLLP

TOST-1-mVenus-Strep = target: T5, TOST-1-mVenus-Strep (C. elegans, UniProt Q18490 1-142); experiment: pull-down
T5 sequence (looked up): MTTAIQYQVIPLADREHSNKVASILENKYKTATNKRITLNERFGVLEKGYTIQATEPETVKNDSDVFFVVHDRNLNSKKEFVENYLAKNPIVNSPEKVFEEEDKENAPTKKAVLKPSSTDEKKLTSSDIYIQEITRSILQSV

full-length ERH-2^FL = target: T6, full-length ERH-2^FL (C. elegans, UniProt Q20057 1-113); experiment: ITC
T6 sequence (looked up): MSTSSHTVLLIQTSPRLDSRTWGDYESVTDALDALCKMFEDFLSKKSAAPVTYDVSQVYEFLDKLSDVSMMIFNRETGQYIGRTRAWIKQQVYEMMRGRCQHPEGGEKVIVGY

SEC-MALS = target: the molecule itself; experiment: SEC-MALS
[7] = SEC-MALS, molecular mass and oligomeric state; type: physicochemical, C. elegans; settings: for average molecular mass: 2-5 mg/mL, 20 mM Tris/HCl pH 7.5, 150 mM NaCl, 2 mM DTT
PID-3/TOFU-6 interaction = type: binding, C. elegans
[8] = target: Cy5-labeled 16-mer oligo(U) RNA; experiment: Fluorescence anisotropy RNA binding, Cy5-U16; settings: 100 nM Cy5-U16 RNA, 10 mM Tris/HCl pH 7.5, 50 mM KCl, 0.5 mM EDTA, ≥2 h at 15°C, single binding site model, n = 3 technical replicates
TOST-1 = experiment: Streptavidin pull-down of ERH-2 variants with TOST-1-mVenus-Strep; type: binding, C. elegans; settings: ERH-2 variants as prey, TOST-1-mVenus-Strep as bait

With “GST-PID-3^pep: GST-tagged PID-3 peptide (residues 171–203) (TFDKVLFNSEDIKDSVFKVLHAEEEPRGADQEN; also: N-terminal His6 and GST tags, order not given here)” the “binding to ERH-2 in GST pull-down” value (ERH-2 [1]) was “ERH-2 could indeed bind to GST-PID-3^pep”.

With KYKTATNKRITLNERFGVLEKGYTIQ [TOST-1^pep] the Kd (ERH-1 [2]) was 10 ± 2 µM, the Kd (ERH-2:PID-3^pep 1:2) was 4 ± 2 µM and the “dissociation constant range from NMR exchange regime” value (ERH-2 [3]) was “micromolar range”.

With “NYNTNLHRKVTLSDRFELAALGYEMKAK [PID-1^pep]” the Kd (ERH-2 [4]) was 24 ± 3 µM, the Kd (ERH-1 [2]) was 73 ± 11 µM and the “dissociation constant range from NMR exchange regime” value (ERH-2 [3]) was “micromolar range”.

For “PID-1: full-length PID-1, C-terminally tagged with monomeric Venus StrepII tag (NYNTNLHRKVTLSDRFELAALGYEMKAK)”, the “binding to ERH-2 in streptavidin pull-down” value (ERH-2 [5]) was “Both PID-1 and TOST-1 bound ERH-2” and the “binding to ERH-1 in streptavidin pull-down” value (ERH-1 [6]) was “interacted with ERH-1”.

B1: PID-3^RRM (domain or fragment, C. elegans, UniProt O76616 196-274, looked up)
chain: PRGADQENMLKISGYPGMLNTFGIAQLLTPYRVNGITITGAQSAVVALENKFQVYQAVQDFNGKKLDRNHKLQVSSLVV
B1: binds (TOFU-6^RRM).

B2: ERH-2 T13E (purified) (natural protein, C. elegans, UniProt Q20057 1-113, looked up)
chain: MSTSSHTVLLIQESPRLDSRTWGDYESVTDALDALCKMFEDFLSKKSAAPVTYDVSQVYEFLDKLSDVSMMIFNRETGQYIGRTRAWIKQQVYEMMRGRCQHPEGGEKVIVGY
B2: binds (TOST-1-mVenus-Strep).

B3: PID-3^pep (peptide, UniProt O76616 171-203, looked up)
peptide: TFDKVLFNSEDIKDSVFKVLHAEEEPRGADQEN
In the case of B3, the “stoichiometry N” value (full-length ERH-2^FL) is reported as 0.97.

B4: TOST-1^pep (peptide, UniProt Q18490 28-53, looked up)
peptide: KYKTATNKRITLNERFGVLEKGYTIQ
B4 gave a Kd (full-length ERH-2^FL) of 13 µM.

B5: ERH-1 (natural protein, C. elegans, UniProt Q22640 1-103, looked up)
chain: MSHTILLLQPTDNIESRSWSDYENTTECLEGICRVYEEYLKKKVPAQNEITYDISHLFEFIDDLKDLSMLVLDNTTYTYVPHNKQYVKESIYKLMNNRLNNQH
B5: binds (TOST-1-mVenus-Strep).

B6: PID-3^RRM F247E/Q251R (purified) (domain or fragment, C. elegans, UniProt O76616 196-274, looked up)
chain: PRGADQENMLKISGYPGMLNTFGIAQLLTPYRVNGITITGAQSAVVALENKEQVYRAVQDFNGKKLDRNHKLQVSSLVV
In the case of B6, the “stoichiometry N” value (SEC-MALS) is reported as 2.

B7: PID-3/ERH-2: PID-3/ERH-2 subcomplex (protein, UniProt O76616 1-307; Q20057 1-113, looked up)
Protein pid-3: MVAHQKADFKSKWAMVVTVNNLNDKKRADLREFSEWFIETLRLEGAFIGHYFNYEAAPVTIVETLPGNFDSCTNAYQKIHKEHPQVVLVVHILPQSQSNEYEWMKVLASRYGFVRQGLLYDNCANRFQNVETDQNSVFRNMCQWIYRSGTAIVRNEGNACGILHGKDPKPTFDKVLFNSEDIKDSVFKVLHAEEEPRGADQENMLKISGYPGMLNTFGIAQLLTPYRVNGITITGAQSAVVALENKFQVYQAVQDFNGKKLDRNHKLQVSSLVVSSPAVPLEWPSLKKSKKLVEQVGKPIRLSKVSS
Enhancer of rudimentary …: MSTSSHTVLLIQTSPRLDSRTWGDYESVTDALDALCKMFEDFLSKKSAAPVTYDVSQVYEFLDKLSDVSMMIFNRETGQYIGRTRAWIKQQVYEMMRGRCQHPEGGEKVIVGY
For B7, the average molecular mass [7] was 92 kDa.

B8: ERH-2: full-length C. elegans ERH-2 (protein, UniProt Q20057 1-113, looked up)
chain: MSTSSHTVLLIQTSPRLDSRTWGDYESVTDALDALCKMFEDFLSKKSAAPVTYDVSQVYEFLDKLSDVSMMIFNRETGQYIGRTRAWIKQQVYEMMRGRCQHPEGGEKVIVGY
modifications: full-length
For B8, the oligomeric state [7] was “homodimers” and the average molecular mass [7] was 27 kDa.

B9: TOFU-6^RRM: TOFU-6 RRM domain, residues 1–99 (protein)
chain: MASSSTAYYLKDAGFHIRNIPKAWNDWNLFHVFQNFGKVSYCRVVGQSNDGQVQLGFVNMMSVADADEVRKNLNDGNLIGENFTLKVTDHKNVGGSLLP
modifications: left off: His10, N-terminal, state not stated | MBP, N-terminal, state not stated
In the case of B9, the “PID-3/TOFU-6 interaction in pull-down” value (PID-3/TOFU-6 interaction) is reported as “the RRM domains of PID-3 and TOFU-6 mediate the interaction between the two proteins” and the Kd [8] is reported as ~60 µM.

B10: PID-3^RRM A220E (protein)
chain: PRGADQENMLKISGYPGMLNTFGIEQLLTPYRVNGITITGAQSAVVALENKFQVYQAVQDFNGKKLDRNHKLQVSSLVV
modifications: left off: His6, N-terminal, kept | GST, N-terminal, kept
With B10 the oligomeric state [7] was “monomeric”.

B11: PID-3^RRM F247E/Q251R (protein)
chain: PRGADQENMLKISGYPGMLNTFGIAQLLTPYRVNGITITGAQSAVVALENKEQVYRAVQDFNGKKLDRNHKLQVSSLVV
modifications: left off: His6, N-terminal, kept | GST, N-terminal, kept
In the case of B11, the oligomeric state [7] is reported as “homodimeric”.

B12: I182E and S185E: GST-tagged PID-3 mutant(s), Ile182 and Ser185 to glutamate (conjugate, UniProt O76616 1-307, looked up, variant I182E S185E)
Protein pid-3: MVAHQKADFKSKWAMVVTVNNLNDKKRADLREFSEWFIETLRLEGAFIGHYFNYEAAPVTIVETLPGNFDSCTNAYQKIHKEHPQVVLVVHILPQSQSNEYEWMKVLASRYGFVRQGLLYDNCANRFQNVETDQNSVFRNMCQWIYRSGTAIVRNEGNACGILHGKDPKPTFDKVLFNSEDEKDEVFKVLHAEEEPRGADQENMLKISGYPGMLNTFGIAQLLTPYRVNGITITGAQSAVVALENKFQVYQAVQDFNGKKLDRNHKLQVSSLVVSSPAVPLEWPSLKKSKKLVEQVGKPIRLSKVSS
modifications: GST tag
With B12 the “binding to ERH-2 in GST pull-down” value (ERH-2 [1]) was “completely abrogated binding of PID-3^pep to ERH-2”.

B13: I182A and V186A: GST-tagged PID-3 mutant(s), Ile182 and Val186 to alanine (conjugate, UniProt O76616 1-307, looked up, variant I182A V186A)
Protein pid-3: MVAHQKADFKSKWAMVVTVNNLNDKKRADLREFSEWFIETLRLEGAFIGHYFNYEAAPVTIVETLPGNFDSCTNAYQKIHKEHPQVVLVVHILPQSQSNEYEWMKVLASRYGFVRQGLLYDNCANRFQNVETDQNSVFRNMCQWIYRSGTAIVRNEGNACGILHGKDPKPTFDKVLFNSEDAKDSAFKVLHAEEEPRGADQENMLKISGYPGMLNTFGIAQLLTPYRVNGITITGAQSAVVALENKFQVYQAVQDFNGKKLDRNHKLQVSSLVVSSPAVPLEWPSLKKSKKLVEQVGKPIRLSKVSS
modifications: GST tag
With B13 the “binding to ERH-2 in GST pull-down” value (ERH-2 [1]) was “sufficient to abolish binding”.

B14: I81A/R83A (protein)
chain: MSTSSHTVLLIQTSPRLDSRTWGDYESVTDALDALCKMFEDFLSKKSAAPVTYDVSQVYEFLDKLSDVSMMIFNRETGQYAGATRAWIKQQVYEMMRGRCQHPEGGEKVIVGY
modifications: left off: His6, N-terminal, state not stated | Trx, N-terminal, state not stated
For B14, the “binding to TOST-1 in streptavidin pull-down” value (TOST-1) was “weaker interaction with TOST-1”.

B15: W87A (protein)
chain: MSTSSHTVLLIQTSPRLDSRTWGDYESVTDALDALCKMFEDFLSKKSAAPVTYDVSQVYEFLDKLSDVSMMIFNRETGQYIGRTRAAIKQQVYEMMRGRCQHPEGGEKVIVGY
modifications: left off: His6, N-terminal, state not stated | Trx, N-terminal, state not stated
In the case of B15, the “binding to TOST-1 in streptavidin pull-down” value (TOST-1) is reported as “weaker interaction with TOST-1”.
